For this test, the target named is T1, soluble human CD3 epsilon chain (human, UniProt P07766 23-126).
T1 construct: also called CD3ε
The experiment in a line: SPR.

T1 sequence (P07766 23-126 limits assumed): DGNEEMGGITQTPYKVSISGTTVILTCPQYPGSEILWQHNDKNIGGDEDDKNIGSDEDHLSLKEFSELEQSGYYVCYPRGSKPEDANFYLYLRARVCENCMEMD

B1: TR01H040-E22Hh/none-Hi-Kn010G3/L0212-k0 (antibody, V domains shown)
VH: QVQLVESGGGLVQPGRSLRLSCAASGFTFSNAWMHWVRQAPGKGLEWVAQIKDKSQNYATYYAESVKGRFTISRADSKNSIYLQMNSLKTEDTAVYYCRYVHYSASYGVDAWGQGTTVTVSS
VL: DIVMTQSPLSLPVTPGEPASISCRPSQSPVHSNRNTYLHWYQQKPGQAPRLLIYKVSNRFSGVPDRFSGSGSGTDFTLKISRVEAEDVGVYYCYQGTQVPYTFGQGTKLEIKR
notes: one-arm
By Kd is commonly meant a measure of binding affinity in units of concentration. Higher therefore signals weaker binding. Regarding B1, the equilibrium dissociation constant (Kd) amounted to 2.17 nM. That is a single-digit nanomolar value.

B2: TR01H047-E22Hh/none-Hi-Kn010G3/L0000-k0 (antibody, V domains shown)
VH: QVQLVESGGGLVQPGRSLRLSCAASGFTFSNAWMHWVRQAPGKGLEWVAQIKDKSNNYATYYAESVKGRFTISRDDSKNSIYLQMNSLKTEDTAVYYCRYVHYSASYGVDIWGQGTTVTVSS
VL: DIVMTQSPLSLPVTPGEPASISCRSSQSLVHSNRNTYLHWYQQKPGQAPRLLIYKVSNRFSGVPDRFSGSGSGTDFTLKISRVEAEDVGVYYCGQGTQVPYTFGQGTKLEIKR
notes: one-arm
In turn, B2 came in with a dissociation constant (Kd) of 20.4 nM.

B3: TR01H040-E22Hh/none-Hi-Kn010G3/L0222-k0 (antibody, V domains shown)
VH: QVQLVESGGGLVQPGRSLRLSCAASGFTFSNAWMHWVRQAPGKGLEWVAQIKDKSQNYATYYAESVKGRFTISRADSKNSIYLQMNSLKTEDTAVYYCRYVHYSASYGVDAWGQGTTVTVSS
VL: DIVMTQSPLSLPVTPGEPASISCRSSQSPVHSNRNTYIQWYQQKPGQAPRLLIYKVSNRFSGVPDRFSGSGSGTDFTLKISRVEAEDVGVYYCYQGTQVPYTFGQGTKLEIKR
notes: one-arm
As to B3, the Kd came to 46.5 nM. Against the preceding molecule, the Kd is about 2.3-fold higher.

B4: TR01H043-E22Hh/none-Hi-Kn010G3/L0000-k0 (antibody, V domains shown)
VH: QVQLVESGGGLVQPGRSLRLSCSASGFTFSNAWMHWVRQAPGKGLEWVAQIKDKSNNYATYYAESVKGRFTISRADSKNSIYLQMNSLKTEDTAVYYCRYVHYSASYGVDIWGQGTTVTVSS
VL: DIVMTQSPLSLPVTPGEPASISCRSSQSLVHSNRNTYLHWYQQKPGQAPRLLIYKVSNRFSGVPDRFSGSGSGTDFTLKISRVEAEDVGVYYCGQGTQVPYTFGQGTKLEIKR
notes: one-arm
Consider B4, for which the Kd amounted to 15.2 nM.

B5: TR01H049-E22Hh/none-Hi-Kn010G3/L0000-k0 (antibody, V domains shown)
VH: QVQLVESGGGLVQPGRSLRLSCAASGFTFSNAWMHWVRQAPGKGLEWVAQIKDKSQNYATYYAESVKGRFTISRDDSKNSIYLQMNSLKTEDTAVYYCRYVHYSASYGVDAWGQGTTVTVSS
VL: DIVMTQSPLSLPVTPGEPASISCRSSQSLVHSNRNTYLHWYQQKPGQAPRLLIYKVSNRFSGVPDRFSGSGSGTDFTLKISRVEAEDVGVYYCGQGTQVPYTFGQGTKLEIKR
notes: one-arm
In turn, B5 came in with an equilibrium dissociation constant (Kd) of 67.9 nM.

B6: TR01H044-E22Hh/none-Hi-Kn010G3/L0000-k0 (antibody, V domains shown)
VH: QVQLVESGGGLVQPGRSLRLSCSASGFTFSNAWMHWVRQAPGKGLEWVAQIKDKSQNYATYYAESVKGRFTISRADSKNSIYLQMNSLKTEDTAVYYCRYVHYSASYGVDIWGQGTTVTVSS
VL: DIVMTQSPLSLPVTPGEPASISCRSSQSLVHSNRNTYLHWYQQKPGQAPRLLIYKVSNRFSGVPDRFSGSGSGTDFTLKISRVEAEDVGVYYCGQGTQVPYTFGQGTKLEIKR
notes: one-arm
Consider B6, for which the equilibrium dissociation constant (Kd) turned out to be 35.2 nM. This Kd is about 1.9-fold lower than that of the molecule before.

B7: TR01H041-E22Hh/none-Hi-Kn010G3/L0000-k0 (antibody, V domains shown)
VH: QVQLVESGGGLVQPGRSLRLSCAASGFTFSNAWMHWVRQAPGKGLEWVAQIKDKSQNYATYYAESVKGRFTISRADSKNSIYLQMNSLKTEDTAVYYCRYVHYSASYGVDYWGQGTTVTVSS
VL: DIVMTQSPLSLPVTPGEPASISCRSSQSLVHSNRNTYLHWYQQKPGQAPRLLIYKVSNRFSGVPDRFSGSGSGTDFTLKISRVEAEDVGVYYCGQGTQVPYTFGQGTKLEIKR
notes: one-arm
B7 displayed a dissociation constant Kd of 31.6 nM.

B8: TR01H052-E22Hh/none-Hi-Kn010G3/L0000-k0 (antibody, V domains shown)
VH: QVQLVESGGGLVQPGRSLRLSCAASGFTFSNAWMHWVRQAPGKGLEWVAQIKDKSQNYATYYAESVKGRFTISRADSKNSLYLQMNSLKTEDTAVYYCRYVHYSASYGVDIWGQGTTVTVSS
VL: DIVMTQSPLSLPVTPGEPASISCRSSQSLVHSNRNTYLHWYQQKPGQAPRLLIYKVSNRFSGVPDRFSGSGSGTDFTLKISRVEAEDVGVYYCGQGTQVPYTFGQGTKLEIKR
notes: one-arm
The molecule B8 gave a Kd of 62.7 nM.

B9: TR01H053-E22Hh/none-Hi-Kn010G3/L0000-k0 (antibody, V domains shown)
VH: QVQLVESGGGLVQPGRSLRLSCAASGFTFSNAWMHWVRQAPGKGLEWVAQIKDKSQNYATYYAESVKGRFTISRADSKNSLYLQMNSLKTEDTAVYYCRYVHYSASYGVDAWGQGTTVTVSS
VL: DIVMTQSPLSLPVTPGEPASISCRSSQSLVHSNRNTYLHWYQQKPGQAPRLLIYKVSNRFSGVPDRFSGSGSGTDFTLKISRVEAEDVGVYYCGQGTQVPYTFGQGTKLEIKR
notes: one-arm
B9: the equilibrium dissociation constant (Kd) was 82.3 nM.

B10: TR01H050-E22Hh/none-Hi-Kn010G3/L0000-k0 (antibody, V domains shown)
VH: QVQLVESGGGLVQPGRSLRLSCAASGFTFSNAWMHWVRQAPGKGLEWVAQIKDKSQNYATYYAESVKGRFTISRDDSKNSIYLQMNSLKTEDTAVYYCRYVHYSASYGVDYWGQGTTVTVSS
VL: DIVMTQSPLSLPVTPGEPASISCRSSQSLVHSNRNTYLHWYQQKPGQAPRLLIYKVSNRFSGVPDRFSGSGSGTDFTLKISRVEAEDVGVYYCGQGTQVPYTFGQGTKLEIKR
notes: one-arm
B10: binding was characterised by a dissociation constant (Kd) of 57.6 nM.

B11: TR01H051-E22Hh/none-Hi-Kn010G3/L0000-k0 (antibody, V domains shown)
VH: QVQLVESGGGLVQPGRSLRLSCAASGFTFSNAWMHWVRQAPGKGLEWVAQIKDKSNNYATYYAESVKGRFTISRADSKNSLYLQMNSLKTEDTAVYYCRYVHYSASYGVDIWGQGTTVTVSS
VL: DIVMTQSPLSLPVTPGEPASISCRSSQSLVHSNRNTYLHWYQQKPGQAPRLLIYKVSNRFSGVPDRFSGSGSGTDFTLKISRVEAEDVGVYYCGQGTQVPYTFGQGTKLEIKR
notes: one-arm
Molecule B11 registered a dissociation constant (Kd) of 29.1 nM.

B12: TR01H055-E22Hh/none-Hi-Kn010G3/L0000-k0 (antibody, V domains shown)
VH: QVQLVESGGGLVQPGRSLRLSCAASGFTFSNAWMHWVRQAPGKGLEWVAQIKDKSNNYATYYAESVKGRFTISRDDSKNSLYLQMNSLKTEDTAVYYCRYVHYSASYGVDIWGQGTTVTVSS
VL: DIVMTQSPLSLPVTPGEPASISCRSSQSLVHSNRNTYLHWYQQKPGQAPRLLIYKVSNRFSGVPDRFSGSGSGTDFTLKISRVEAEDVGVYYCGQGTQVPYTFGQGTKLEIKR
notes: one-arm
Consider B12, for which the Kd came to 38.8 nM.

B13: TR01H048-E22Hh/none-Hi-Kn010G3/L0000-k0 (antibody, V domains shown)
VH: QVQLVESGGGLVQPGRSLRLSCAASGFTFSNAWMHWVRQAPGKGLEWVAQIKDKSQNYATYYAESVKGRFTISRDDSKNSIYLQMNSLKTEDTAVYYCRYVHYSASYGVDIWGQGTTVTVSS
VL: DIVMTQSPLSLPVTPGEPASISCRSSQSLVHSNRNTYLHWYQQKPGQAPRLLIYKVSNRFSGVPDRFSGSGSGTDFTLKISRVEAEDVGVYYCGQGTQVPYTFGQGTKLEIKR
notes: one-arm
Molecule B13 registered a dissociation constant Kd of 45.2 nM.

B14: TR01H056-E22Hh/none-Hi-Kn010G3/L0000-k0 (antibody, V domains shown)
VH: QVQLVESGGGLVQPGRSLRLSCAASGFTFSNAWMHWVRQAPGKGLEWVAQIKDKSQNYATYYAESVKGRFTISRDDSKNSLYLQMNSLKTEDTAVYYCRYVHYSASYGVDIWGQGTTVTVSS
VL: DIVMTQSPLSLPVTPGEPASISCRSSQSLVHSNRNTYLHWYQQKPGQAPRLLIYKVSNRFSGVPDRFSGSGSGTDFTLKISRVEAEDVGVYYCGQGTQVPYTFGQGTKLEIKR
notes: one-arm
B14 came in with a dissociation constant Kd of 73.2 nM.

B15: TR01H057-E22Hh/none-Hi-Kn010G3/L0000-k0 (antibody, V domains shown)
VH: QVQLVESGGGLVQPGRSLRLSCAASGFTFSNAWMHWVRQAPGKGLEWVAQIKDKSQNYATYYAESVKGRFTISRDDSKNSLYLQMNSLKTEDTAVYYCRYVHYSASYGVDAWGQGTTVTVSS
VL: DIVMTQSPLSLPVTPGEPASISCRSSQSLVHSNRNTYLHWYQQKPGQAPRLLIYKVSNRFSGVPDRFSGSGSGTDFTLKISRVEAEDVGVYYCGQGTQVPYTFGQGTKLEIKR
notes: one-arm
The molecule B15 registered a Kd of 112 nM.

B16: TR01H058-E22Hh/none-Hi-Kn010G3/L0000-k0 (antibody, V domains shown)
VH: QVQLVESGGGLVQPGRSLRLSCAASGFTFSNAWMHWVRQAPGKGLEWVAQIKDKSQNYATYYAESVKGRFTISRDDSKNSLYLQMNSLKTEDTAVYYCRYVHYSASYGVDYWGQGTTVTVSS
VL: DIVMTQSPLSLPVTPGEPASISCRSSQSLVHSNRNTYLHWYQQKPGQAPRLLIYKVSNRFSGVPDRFSGSGSGTDFTLKISRVEAEDVGVYYCGQGTQVPYTFGQGTKLEIKR
notes: one-arm
The molecule B16 showed a Kd of 115 nM.

B17: TR01H054-E22Hh/none-Hi-Kn010G3/L0000-k0 (antibody, V domains shown)
VH: QVQLVESGGGLVQPGRSLRLSCAASGFTFSNAWMHWVRQAPGKGLEWVAQIKDKSQNYATYYAESVKGRFTISRADSKNSLYLQMNSLKTEDTAVYYCRYVHYSASYGVDYWGQGTTVTVSS
VL: DIVMTQSPLSLPVTPGEPASISCRSSQSLVHSNRNTYLHWYQQKPGQAPRLLIYKVSNRFSGVPDRFSGSGSGTDFTLKISRVEAEDVGVYYCGQGTQVPYTFGQGTKLEIKR
notes: one-arm
Regarding B17, the equilibrium dissociation constant (Kd) stood at 77.9 nM. This Kd and that of the molecule before are within 1.5-fold of each other.

B18: TR01H061-E22Hh/none-Hi-Kn010G3/L0000-k0 (antibody, V domains shown)
VH: QVQLVESGGGLVQPGRSLRLSCAASGFTFSNAWMHWVRQAPGKGLEWVAQIKDKSQNYATYYAESVKGRFTISRADSKNSIYLQMNSLKTEDTAVYYCRYVHYAASYGVDIWGQGTTVTVSS
VL: DIVMTQSPLSLPVTPGEPASISCRSSQSLVHSNRNTYLHWYQQKPGQAPRLLIYKVSNRFSGVPDRFSGSGSGTDFTLKISRVEAEDVGVYYCGQGTQVPYTFGQGTKLEIKR
notes: one-arm
Regarding B18, binding was put at a Kd of 17.1 nM.

B19: TR01H042-E22Hh/none-Hi-Kn010G3/L0000-k0 (antibody, V domains shown)
VH: QVQLVESGGGVVQPGGSLRLSCAASGFTFSNAWMHWVRQAPGKGLEWVAQIKDKSQNYATYYAESVKGRFTISRADSKNSIYLQMNSLKTEDTAVYYCRYVHYSASYGVDAWGQGTTVTVSS
VL: DIVMTQSPLSLPVTPGEPASISCRSSQSLVHSNRNTYLHWYQQKPGQAPRLLIYKVSNRFSGVPDRFSGSGSGTDFTLKISRVEAEDVGVYYCGQGTQVPYTFGQGTKLEIKR
notes: one-arm
For B19, the Kd was found to be 44.8 nM.

B20: TR01H046-E22Hh/none-Hi-Kn010G3/L0000-k0 (antibody, V domains shown)
VH: QVQLVESGGGLVQPGRSLRLSCSASGFTFSNAWMHWVRQAPGKGLEWVAQIKDKSQNYATYYAESVKGRFTISRADSKNSIYLQMNSLKTEDTAVYYCRYVHYSASYGVDYWGQGTTVTVSS
VL: DIVMTQSPLSLPVTPGEPASISCRSSQSLVHSNRNTYLHWYQQKPGQAPRLLIYKVSNRFSGVPDRFSGSGSGTDFTLKISRVEAEDVGVYYCGQGTQVPYTFGQGTKLEIKR
notes: one-arm
As for B20, the equilibrium dissociation constant (Kd) is 42.3 nM.

B21: TR01H045-E22Hh/none-Hi-Kn010G3/L0000-k0 (antibody, V domains shown)
VH: QVQLVESGGGLVQPGRSLRLSCSASGFTFSNAWMHWVRQAPGKGLEWVAQIKDKSQNYATYYAESVKGRFTISRADSKNSIYLQMNSLKTEDTAVYYCRYVHYSASYGVDAWGQGTTVTVSS
VL: DIVMTQSPLSLPVTPGEPASISCRSSQSLVHSNRNTYLHWYQQKPGQAPRLLIYKVSNRFSGVPDRFSGSGSGTDFTLKISRVEAEDVGVYYCGQGTQVPYTFGQGTKLEIKR
notes: one-arm
The molecule B21 showed a dissociation constant Kd of 52.2 nM.

(Values after US20250066503A1, “CELL INJURY INDUCING THERAPEUTIC DRUG FOR USE IN CANCER THERAPY” (CHUGAI SEIYAKU KABUSHIKI KAISHA, priority 2016, published 2025).)
